* marks the point of attachment. Biotin = O=C1N[C@H]2[C@H](CS[C@H]2CCCCC(=O)*)N1
Columns and labels:
Experiment in all cases: plaque-lift screen of mouse 16 day embryo cDNA expression library with biotinylated peptide complexed to SA-AP
[1] = target: T1, SH3P12, a novel mouse gene (mouse, UniProt Q62417 1-1290)
T1 construct: Protein encoded by a cDNA clone, on plaque-lift filters; not shown: N-terminal phi10 leader (T7-Tag) common to all lambda EXlox recombinants
T1 sequence: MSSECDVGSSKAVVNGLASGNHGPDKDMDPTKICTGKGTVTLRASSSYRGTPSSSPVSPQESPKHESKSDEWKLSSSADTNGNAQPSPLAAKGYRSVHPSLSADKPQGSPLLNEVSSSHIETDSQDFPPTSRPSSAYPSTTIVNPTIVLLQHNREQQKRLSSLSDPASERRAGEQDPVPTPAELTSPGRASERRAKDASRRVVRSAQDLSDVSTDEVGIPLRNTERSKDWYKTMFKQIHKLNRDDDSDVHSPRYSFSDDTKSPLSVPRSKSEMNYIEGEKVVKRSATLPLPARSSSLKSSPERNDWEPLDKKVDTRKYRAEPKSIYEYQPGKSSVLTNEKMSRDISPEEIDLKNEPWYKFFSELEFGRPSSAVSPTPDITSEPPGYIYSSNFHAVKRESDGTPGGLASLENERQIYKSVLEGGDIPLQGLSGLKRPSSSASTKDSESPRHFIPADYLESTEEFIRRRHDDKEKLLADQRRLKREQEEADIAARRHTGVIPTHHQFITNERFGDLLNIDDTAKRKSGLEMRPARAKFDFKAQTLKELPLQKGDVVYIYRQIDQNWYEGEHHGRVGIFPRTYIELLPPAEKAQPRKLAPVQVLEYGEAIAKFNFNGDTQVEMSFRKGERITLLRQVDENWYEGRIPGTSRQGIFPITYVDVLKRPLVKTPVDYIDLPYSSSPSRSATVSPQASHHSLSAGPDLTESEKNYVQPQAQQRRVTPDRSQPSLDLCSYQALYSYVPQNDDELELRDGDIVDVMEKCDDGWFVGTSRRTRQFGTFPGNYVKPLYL

[2] = target: T2, SH3P7, a novel mouse gene (mouse, UniProt Q62418 1-436)
T2 construct: Protein encoded by a cDNA clone, on plaque-lift filters; not shown: N-terminal phi10 leader (T7-Tag) common to all lambda EXlox recombinants

[3] = target: T3, SH3P8, a novel mouse gene (mouse, UniProt Q62419 1-368)
T3 construct: Protein encoded by a cDNA clone, on plaque-lift filters; not shown: N-terminal phi10 leader (T7-Tag) common to all lambda EXlox recombinants

SH3P11, mouse Crk = target: T4, SH3P11, mouse Crk (mouse, UniProt Q64010 1-304)
T4 construct: Protein encoded by a cDNA clone, on plaque-lift filters; not shown: N-terminal phi10 leader (T7-Tag) common to all lambda EXlox recombinants

SH3P10, mouse HS1 = target: T5, SH3P10, mouse HS1 (mouse, UniProt P49710 1-486)
T5 construct: Protein encoded by a cDNA clone, on plaque-lift filters; also called SPY75/HS1; not shown: N-terminal phi10 leader (T7-Tag) common to all lambda EXlox recombinants
T5 sequence: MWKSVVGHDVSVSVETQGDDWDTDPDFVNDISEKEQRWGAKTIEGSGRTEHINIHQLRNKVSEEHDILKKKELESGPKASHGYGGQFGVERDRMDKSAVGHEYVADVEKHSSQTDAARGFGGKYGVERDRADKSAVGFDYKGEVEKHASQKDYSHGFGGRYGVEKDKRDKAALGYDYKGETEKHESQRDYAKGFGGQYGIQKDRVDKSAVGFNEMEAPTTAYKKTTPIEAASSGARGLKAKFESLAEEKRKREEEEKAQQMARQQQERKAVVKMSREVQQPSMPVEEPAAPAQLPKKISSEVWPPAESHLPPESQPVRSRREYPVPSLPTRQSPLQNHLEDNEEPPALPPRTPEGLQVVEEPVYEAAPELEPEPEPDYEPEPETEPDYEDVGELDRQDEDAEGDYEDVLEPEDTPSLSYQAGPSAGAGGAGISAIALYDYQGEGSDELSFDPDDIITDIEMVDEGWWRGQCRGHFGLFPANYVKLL

[4] = target: T6, SH3P9, a novel mouse gene (mouse, UniProt O08539 2-588)
T6 construct: Protein encoded by a cDNA clone, on plaque-lift filters; also called SH3P9 (mouse); not shown: N-terminal phi10 leader (T7-Tag) common to all lambda EXlox recombinants
T6 sequence: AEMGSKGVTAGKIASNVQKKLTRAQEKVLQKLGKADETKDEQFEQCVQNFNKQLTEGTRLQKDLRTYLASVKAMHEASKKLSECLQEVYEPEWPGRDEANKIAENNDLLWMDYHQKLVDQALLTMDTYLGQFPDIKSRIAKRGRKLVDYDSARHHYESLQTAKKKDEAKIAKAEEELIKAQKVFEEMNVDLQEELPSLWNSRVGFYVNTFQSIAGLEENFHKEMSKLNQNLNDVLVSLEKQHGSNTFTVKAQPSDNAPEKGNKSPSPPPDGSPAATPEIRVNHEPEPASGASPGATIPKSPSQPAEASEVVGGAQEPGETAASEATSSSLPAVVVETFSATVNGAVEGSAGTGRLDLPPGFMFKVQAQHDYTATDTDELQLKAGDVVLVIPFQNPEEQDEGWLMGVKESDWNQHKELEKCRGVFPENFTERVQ

[5] = target: T7, SH3P13, a novel mouse gene (mouse, UniProt Q62421 1-347)
T7 construct: Protein encoded by a cDNA clone, on plaque-lift filters; not shown: N-terminal phi10 leader (T7-Tag) common to all lambda EXlox recombinants
T7 sequence: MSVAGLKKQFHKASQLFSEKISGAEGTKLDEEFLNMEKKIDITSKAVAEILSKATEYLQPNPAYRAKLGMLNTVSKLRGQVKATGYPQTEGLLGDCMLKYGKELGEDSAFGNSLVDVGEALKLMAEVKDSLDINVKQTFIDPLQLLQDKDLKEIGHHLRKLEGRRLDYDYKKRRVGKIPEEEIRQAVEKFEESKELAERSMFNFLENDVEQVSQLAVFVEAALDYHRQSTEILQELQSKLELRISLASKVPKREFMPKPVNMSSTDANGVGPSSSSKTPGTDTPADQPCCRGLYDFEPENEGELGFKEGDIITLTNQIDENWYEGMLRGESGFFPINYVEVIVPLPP

SH3P5, mouse Cortactin = target: T8, SH3P5, mouse Cortactin (mouse, UniProt Q60598 1-546)
T8 construct: Protein encoded by a cDNA clone, on plaque-lift filters; not shown: N-terminal phi10 leader (T7-Tag) common to all lambda EXlox recombinants

SH3P6, mouse MLN50 = target: T9, SH3P6, mouse MLN50 (mouse, UniProt Q61792 59-263)
T9 construct: Protein encoded by a cDNA clone, on plaque-lift filters; not shown: N-terminal phi10 leader (T7-Tag) common to all lambda EXlox recombinants
T9 sequence: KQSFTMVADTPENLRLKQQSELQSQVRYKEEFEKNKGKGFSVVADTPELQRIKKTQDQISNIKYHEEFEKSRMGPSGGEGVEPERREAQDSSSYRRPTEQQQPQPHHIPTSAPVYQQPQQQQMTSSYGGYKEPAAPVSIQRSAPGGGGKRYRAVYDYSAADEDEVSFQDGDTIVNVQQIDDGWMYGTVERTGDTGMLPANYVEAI

T8 sequence (Q60598 whole entry S298P): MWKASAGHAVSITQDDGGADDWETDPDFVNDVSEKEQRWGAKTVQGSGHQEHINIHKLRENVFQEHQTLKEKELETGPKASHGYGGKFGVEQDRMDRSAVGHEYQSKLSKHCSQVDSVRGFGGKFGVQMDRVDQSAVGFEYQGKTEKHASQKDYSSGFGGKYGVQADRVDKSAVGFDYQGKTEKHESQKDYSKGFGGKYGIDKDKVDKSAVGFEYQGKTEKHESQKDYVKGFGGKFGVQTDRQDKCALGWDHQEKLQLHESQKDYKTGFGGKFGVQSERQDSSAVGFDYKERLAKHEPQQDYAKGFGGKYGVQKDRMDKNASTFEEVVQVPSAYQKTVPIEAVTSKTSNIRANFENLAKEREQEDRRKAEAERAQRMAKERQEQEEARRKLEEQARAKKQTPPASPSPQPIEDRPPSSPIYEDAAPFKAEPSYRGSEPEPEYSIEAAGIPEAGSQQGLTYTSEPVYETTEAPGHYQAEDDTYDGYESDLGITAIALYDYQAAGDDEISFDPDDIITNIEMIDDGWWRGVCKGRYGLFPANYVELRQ
T2 sequence (Q62418 other isoform, or with tags, fused parts or gaps): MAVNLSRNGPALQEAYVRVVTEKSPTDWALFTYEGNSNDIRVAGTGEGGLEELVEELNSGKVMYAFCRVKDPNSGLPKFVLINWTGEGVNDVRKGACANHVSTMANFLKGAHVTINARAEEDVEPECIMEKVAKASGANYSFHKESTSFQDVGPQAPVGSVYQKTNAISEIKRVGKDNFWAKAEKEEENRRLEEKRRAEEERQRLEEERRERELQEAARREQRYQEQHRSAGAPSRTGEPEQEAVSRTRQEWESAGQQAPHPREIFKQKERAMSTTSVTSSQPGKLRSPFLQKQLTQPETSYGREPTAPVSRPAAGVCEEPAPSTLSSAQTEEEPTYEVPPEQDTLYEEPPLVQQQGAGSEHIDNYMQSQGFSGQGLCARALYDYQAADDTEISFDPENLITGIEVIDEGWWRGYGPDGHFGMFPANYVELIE
T4 sequence (Q64010 whole entry): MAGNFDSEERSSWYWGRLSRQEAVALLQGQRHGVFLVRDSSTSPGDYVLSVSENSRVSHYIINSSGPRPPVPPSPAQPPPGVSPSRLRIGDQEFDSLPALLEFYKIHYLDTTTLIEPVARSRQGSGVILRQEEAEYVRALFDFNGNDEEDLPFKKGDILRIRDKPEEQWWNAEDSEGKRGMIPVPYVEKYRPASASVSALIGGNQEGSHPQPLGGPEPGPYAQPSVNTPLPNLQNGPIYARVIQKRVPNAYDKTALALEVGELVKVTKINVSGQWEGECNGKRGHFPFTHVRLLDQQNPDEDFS
T3 sequence (Q62419 other isoform, or with tags, fused parts or gaps): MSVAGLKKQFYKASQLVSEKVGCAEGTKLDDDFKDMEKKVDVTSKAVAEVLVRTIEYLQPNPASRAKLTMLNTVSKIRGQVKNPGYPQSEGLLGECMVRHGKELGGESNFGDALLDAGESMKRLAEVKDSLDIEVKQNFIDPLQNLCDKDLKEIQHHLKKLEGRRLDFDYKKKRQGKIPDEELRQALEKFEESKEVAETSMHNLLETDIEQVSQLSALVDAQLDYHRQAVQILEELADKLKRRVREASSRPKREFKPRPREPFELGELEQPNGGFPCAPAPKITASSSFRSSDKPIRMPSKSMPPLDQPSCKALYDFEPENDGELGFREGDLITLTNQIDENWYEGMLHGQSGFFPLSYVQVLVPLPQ

- binding result [1]: binds
- binding result [2]: binds
- binding result [3]: binds
- binding result (SH3P11, mouse Crk): binds
- binding result (SH3P10, mouse HS1): binds
- binding result [4]: binds
- binding result [5]: binds
- binding result (SH3P5, mouse Cortactin): binds
- binding result (SH3P6, mouse MLN50): binds
B1: pCort (biotin-SGSGSRLTPQSKPPLPPKPSWVSR-NH2) (peptide)
peptide: Biotin-SGSGSRLTPQSKPPLPPKPSWVSR-NH2
SMILES: CC(C)C[C@H](NC(=O)[C@H](CCCNC(=N)N)NC(=O)[C@H](CO)NC(=O)CNC(=O)[C@H](CO)NC(=O)CNC(=O)[C@H](CO)NC(=O)CCCC[C@@H]1SC[C@@H]2NC(=O)N[C@@H]21)C(=O)N[C@H](C(=O)N1CCC[C@H]1C(=O)N[C@@H](CCC(N)=O)C(=O)N[C@@H](CO)C(=O)N[C@@H](CCCCN)C(=O)N1CCC[C@H]1C(=O)N1CCC[C@H]1C(=O)N[C@@H](CC(C)C)C(=O)N1CCC[C@H]1C(=O)N1CCC[C@H]1C(=O)N[C@@H](CCCCN)C(=O)N1CCC[C@H]1C(=O)N[C@@H](CO)C(=O)N[C@@H](Cc1c[nH]c2ccccc12)C(=O)N[C@H](C(=O)N[C@@H](CO)C(=O)N[C@@H](CCCNC(=N)N)C(N)=O)C(C)C)[C@@H](C)O
notes: Synthetic peptide with the Cortactin SH3 recognition unit motif; used complexed with streptavidin-alkaline phosphatase

— patent publication US7223547B2, “Polypeptides having a functional domain of interest and methods of identifying and using same” (Cytogen Corporation, priority 1995, dated 2007)
